Data set [1] deals with FDH1: formate dehydrogenase from Candida boidinii with peptide-1 (MEEVV) fused to its C-terminus (Candida boidinii). Briefly: SEC; each tagged enzyme alone; molecular weight estimated from the elution.
Another data set addresses T1, TRAP1-3.
T1 construct: designed fusion of TRAP1 and TRAP3 TPR modules, synthetic gene in pET-28b(+), E. coli C41, Ni-NTA; His-tag kept in assembly; mass 32,621 (kDa [sic])
Briefly: fluorescence anisotropy of NADH. The format is binding. The conditions noted are these: PBS (150 mM NaCl, 50 mM phosphate) pH 7.4, 25 °C, 1 µM NADH titrated with 0-100 µM TRAP1-3; one-site fit.

Substrate in data set [2]: O=CO
Briefly: purified protein. The following applies: saturating NAD+, 25 mM sodium phosphate pH 7.0, 30 °C, FDH1 bound alone to TRAP1-3, apparent. It counts as biochemical, [Candida] boidinii.

Substrate in data set [3]: NC(=O)c1ccc[n+]([C@@H]2O[C@H](COP(=O)(O)OP(=O)(O)OC[C@H]3O[C@@H](n4cnc5c(N)ncnc54)[C@H](O)[C@@H]3O)[C@@H](O)[C@H]2O)c1
Briefly: purified protein. It counts as biochemical, [Candida] boidinii. The conditions noted are these: saturating formate, 25 mM sodium phosphate pH 7.0, 30 °C, FDH1 bound alone to TRAP1-3, apparent.

Substrate in data set [4]: CC(=O)C(=O)O
Briefly: purified protein. It counts as biochemical, Geobacillus stearothermophilus. The conditions noted are these: saturating NADH, 500 mM ammonium chloride, 25 mM potassium phosphate pH 8.0, 30 °C, AlaDH3 bound alone to TRAP1-3, apparent, substrate inhibition fit.

Substrate in data set [5]: NC(=O)C1=CN([C@@H]2O[C@H](COP(=O)(O)OP(=O)(O)OC[C@H]3O[C@@H](n4cnc5c(N)ncnc54)[C@H](O)[C@@H]3O)[C@@H](O)[C@H]2O)C=CC1
Briefly: purified protein. The format is biochemical, Geobacillus stearothermophilus. The following applies: saturating pyruvate, 500 mM ammonium chloride, 25 mM potassium phosphate pH 8.0, 30 °C, AlaDH3 bound alone to TRAP1-3, apparent.

Data set [6] concerns the molecule itself. Briefly: SEC; each tagged enzyme alone; molecular weight estimated from the elution.

In the case of “FDH1: formate dehydrogenase from Candida boidinii with peptide-1 (MEEVV) fused to its C-terminus (enzyme)”, the stoichiometry N in data set [1] is 2.

`NC(=O)C1=CN([C@@H]2O[C@H](COP(=O)(O)OP(=O)(O)OC[C@H]3O[C@@H](n4cnc5c(N)ncnc54)[C@H](O)[C@@H]3O)[C@@H](O)[C@H]2O)C=CC1` [NADH]: the affinity at TRAP1-3, expressed as Kd, was 34.9 µM.

B1: FDH1@TRAP ([Candida] boidinii) (protein)
chain: MKIVLVLYDAGKHAADEEKLYGCTENKLGIANWLKDQGHELITTSDKEGGNSVLDQHIPDADIIITTPFHPAYITKERIDKAKKLKLVVVAGVGSDHIDLDYINQTGKKISVLEVTGSNVVSVAEHVLMTMLVLVRNFVPAHEQIINHDWEVAAIAKDAYDIEGKTIATIGAGRIGYRVLERLVPFNPKELLYYDYQALPKDAEEKVGARRVENIEELVAQADIVTINAPLHAGTKGLINKELLSKFKKGAWLVNTARGAICVAEDVAAALESGQLRGYGGDVWFPQPAPKDHPWRDMRNKYGAGNAMTPHYSGTTLDAQTRYAEGTKNILESFFTGKFDYRPQDIILLNGEYITKAYGKHDKK
notes: FDH with C-terminal peptide-1 tag MEEVV, pET-28b(+), E. coli C41, Ni-NTA, His-tag removed by TEV; mass 45,137 (kDa [sic]); dimer; 5DNA as structure used for illustration
B1: in “purified protein [2]”, the Km came out at 2420 ± 1070 µM, the Vmax was 0.95 µmol/min/mg, the catalytic constant (kcat) was 0.7 ± 0.2 s⁻¹ and the kcat/Km is 290 M⁻¹ s⁻¹. In addition, in “purified protein [3]”, the Michaelis constant (Km) turned out to be 270 ± 100 µM, the Vmax was determined as 1.23 µmol/min/mg, the turnover number (kcat) was 0.9 ± 0.3 s⁻¹ and the kcat/Km turned out to be 3500 M⁻¹ s⁻¹.

B2: AlaDH3@TRAP (Geobacillus stearothermophilus) (protein)
chain: MKIGIPKEIKNNENRVAITPAGVMTLVKAGHEVYVETEGGAGSGFSDSEYEKAGAADRCRTWRDAWTAEMVLKVKEPLAREFRYFRPGLILFTYLHLAAAERVTKAVVEQKVVGIAYETVQLANGSLPLLTPMSEVAGRMSVQVGAQFLEKPHGGKGILLGGVPGVRRGKVTIIGGGTAGTNAAKIGVGLGADVTILDINAERLRELDDLFGDHVTTLMSNSYHIAECVRESDLVVGAVLIPGAKAKLVTEEMVRSMTPGSVLVDIAIDQGGIFETTDRVTTHDDPTYVKHGVVHYAVANMPGAVPRTSTFALTNVTIPYALQIANKGYRAGCLDNPALLKGINTLDGHIVYEAVAAAHNMPYTDVHSLLHG
notes: AlaDH with C-terminal peptide-3 tag MRRVW, pET-28b(+), E. coli C41, Ni-NTA, His-tag removed by TEV; mass 44,323 (kDa [sic]); hexamer
B2: in “purified protein [4]”, the Michaelis-Menten constant (Km) was found to be 390 ± 50 µM, the Vmax was determined as 41.3 µmol/min/mg, the turnover number (kcat) came out at 30.6 ± 1.9 s⁻¹ and the catalytic efficiency (kcat/Km) is 79000 M⁻¹ s⁻¹. For the same molecule, in the data set “purified protein [5]”, the Michaelis constant (Km) turned out to be 360 ± 70 µM, the Vmax is 94.3 µmol/min/mg, the kcat stood at 69.9 ± 4.7 s⁻¹ and the kcat/Km was determined as 190000 M⁻¹ s⁻¹.

B3: AlaDH3: alanine dehydrogenase from Bacillus stearothermophilus with peptide-3 (MRRVW) fused to its C-terminus (enzyme)
chain: MKIGIPKEIKNNENRVAITPAGVMTLVKAGHDVYVETEAGAGSGFSDSEYEKAGAVIVPNAEDAWTAEMVLKVKEPLAEEFRYFRPGLILFTYLHLAAAEALTKALVEQKVVGIAYETVQLANGSLPLLTPMSEVAGRMSVQVGAQFLEKPHGGKGILLGGVPGVRRGKVTIIGGGTAGTNAAKIAVGLGSDVTILDINAERLRELDDLFGDHVTTLMSNSYHIAECVRESDLVVGAVLIPGAKAPKLVTEEMVRSMTPGSVLVDIAIDQGGIFETTDRVTTHDDPTYVKHGVVHYAVANMPGAVPRTSTFALTNVTIPYALQIANKGYRAACLDNPALLKGINTLDGHIVYEAVAAAHNMPYTDVHSLLHGMRRVW
Regarding B3, the “stoichiometry N” value in data set [6] is 6.

(Values after publication PMC10160029, “Engineered repeat proteins as scaffolds to assemble multi-enzyme systems for efficient cell-free biosynthesis” (Nature Communications, 2023).)
